Test results from US20250051468A1 (INNOLAKE BIOPHARMA HANGZHOU, published 2025).
Where two headings read alike, the source gives them in different places.

Experiments:
[1] = biological target: T1, human OX40 expressed on cells (293T-OX40, Jurkat-OX40) (human, UniProt P43489 29-277); experiment: cell-based or functional assay
T1 sequence (looked up): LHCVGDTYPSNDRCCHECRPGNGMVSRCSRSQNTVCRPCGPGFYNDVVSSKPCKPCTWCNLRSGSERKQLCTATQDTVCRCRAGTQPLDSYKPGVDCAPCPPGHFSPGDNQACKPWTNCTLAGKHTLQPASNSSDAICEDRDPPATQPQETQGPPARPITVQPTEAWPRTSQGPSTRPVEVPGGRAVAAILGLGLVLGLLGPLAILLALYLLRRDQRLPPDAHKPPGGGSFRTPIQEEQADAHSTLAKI

[2] = biological target: T1, human OX40 expressed on cells …; experiment: FACS on 293T-OX40 cells
Protocol: (§1) (3) FACS Screening for Antibodies Binding to OX40-ECD. 50 μL of the hybridoma supernatant tested positive in the ELISA tests was pipetted and mixed with 50 μL of 293T-OX40 cells (1×10⁵ cells/well), and the mixture was added to a 96-well plate with a U-shaped bottom and incubated for 1 hour. After the mixture was centrifuged and washed twice with FACS buffer (PBS+3% FCS), PE-labeled goat anti-mouse secondary antibody (Biolegend, Cat. No.: 405307) diluted at 1:400 was added, the mixture was incubated for 30 minutes, and washed with FACS buffer, and then PE signal of 293T-OX40 cells was detected using a BD C6 flow cytometer.
Purified humanized antibody samples were tested for their binding to OX40 using FACS and for their ability to block the OX40L/OX40 signaling pathway using a reporter gene assay. The specific methods are referenced from Example 1. The results are shown in Table 6, Table 7, FIG. 7 and FIG. 8. The effects of the humanized antibodies on the function of primary T cells were tested, including an MLR response test of the inhibitory effect of the OX40 humanized antibody on the proliferation of CD4+ T cells, and a test of the inhibitory effect of the OX40 humanized antibody on the proliferation of CD8+ T cells induced by CEF.

[3] = biological target: T1, human OX40 expressed on cells …; experiment: cell-based or functional assay; remark: listed apart in the source
[4] = biological target: T2, OX40-ECD-hFc (human, UniProt P43489 29-214); experiment: ELISA, OX40-ECD-hFc coated on plate
T2 construct: extracellular domain; Coated on the ELISA plate; also called OX40-hFc protein; not shown: human Fc (hFc)
T2 sequence (looked up): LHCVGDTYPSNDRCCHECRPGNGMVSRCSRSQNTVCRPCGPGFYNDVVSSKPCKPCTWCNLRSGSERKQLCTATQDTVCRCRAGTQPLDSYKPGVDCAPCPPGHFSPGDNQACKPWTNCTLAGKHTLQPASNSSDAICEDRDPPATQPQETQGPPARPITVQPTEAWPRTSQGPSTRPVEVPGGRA
Protocol: (2) ELISA Screening for Antibodies Binding to OX40-ECD. 96-well ELISA plate (Corning, Cat. No.: 9018) was inoculated with OX40-ECD-hFc, left at 4° C. overnight, and washed 3 times with wash buffer (PBS+0.05% Tween 20), then blocking buffer (PBS+1% BSA (Sigma, Cat. No.: V90093)) was added, and the 96-well ELISA plate was incubated for 1 hour and washed 3 times; hybridoma supernatant was added, the 96-well ELISA plate was incubated for 1 hour and washed 3 times; and 100 μL of goat anti-mouse IgG secondary antibody (Thermo, Cat. No.: 31432) diluted at 1:10000 was added to each well, and the 96-well ELISA plate was incubated at room temperature for 1 hour and washed 3 times. 100 µL of TMB (Biosubstrate Technologies, Cat. No.: ES-002) was added to each well and left for 3 minutes for color development, then a stop solution (2N H₂SO₄) was added at a dose of 100 μL/well to terminate the reaction, and the OD450 signal of each sample was measured with a Tecan Spark microplate reader.
(§2) The activity of the purified antibody sample to bind OX40 and block the binding of OX40 to OX40L was tested via ELISA and FACS. Specific methods are described in steps (2), (3) and (4) in Example 1. 6 monoclonal OX40 hybridoma antibodies 1G2, 3G4, 9G7, 177G5, 118A10 and 119H2 were tested. Test results are shown in Table 1 to Table 3 and FIGS. 1 to 3.

[5] = biological target: T1, human OX40 expressed on cells …; experiment: FACS on 293T-OX40 cells; remark: listed apart in the source
Protocol: as §1, §2

[6] = biological target: T1, human OX40 expressed on cells …; experiment: cell-based or functional assay; remark: listed apart in the source

Binder	EC50 of ADCC activity (LDH release, Jurkat-OX40 target cells + PBMC) [1] [µg/mL]	EC50 [2] [µg/mL]	IC50 of reporter gene assay (NF-kB-luciferase, Jurkat-OX40 cells + OX40L) [3] [µg/mL]	EC50 [4] [µg/mL]	EC50 [5] [µg/mL]	IC50 of reporter gene assay (NF-kB-luciferase, Jurkat-OX40 cells + OX40L) [6] [µg/mL]
humanized anti-OX40 antibody hu9G7-DE (antibody, V domains shown, Constructed as human IgG1 with constant region Ser239, Ala330 and Ile332 mutated to Asp, Leu and Glu; also called humanized antibody 9G7; combination C') VH: EVQLVESGGGLVQPGGSLRLSCAASGFTFSDYYMYWVRQAPGKGLEWVAYISNGDISTYYPDTVKGRFTISRDNAKNSLYLQMNSLRAEDTAVYYCARDDGYSAWFAYWGQGTTVTVSS VL: DIVMTQSPDSLAVSLGERATINCKSSQSLLNSSNQKNYLAWYQQKPGQPPKLLVYFASTRESGVPDRFSGSGSGTDFTLTISSLQAEDVAVYYCQQHYYTPFTFGQGTKLEIK	0.00143	0.0623	0.0575	–	–	–
murine OX40 hybridoma antibody 118A10 (antibody, V domains shown, Purified murine monoclonal hybridoma antibody) VH: EVKLDETGGGLVQPGRPMKLSCVASGFTFSDYWLNWVRQSPEKGLEWVAQIRNKPYHYETFYSESVKGRFTISRDDSKSSVYLQMNDLRGEDTGIYYCTGYFDYWGQGTTLTVSS VL: DIVLTQSPASLTISLGQRATISCRASQSVSTSTYSYIHWYQQKPGQPPRLLIKYASNLESGVPARFSGSGSGTDFTLNIHPVEEEDTATYYCQHSWGIPPTFGGGTKLEIKR	–	–	–	0.0249	0.0735	0.198
murine OX40 hybridoma antibody 119H2 (antibody, V domains shown, Purified murine monoclonal hybridoma antibody) VH: EVKLDATGGGLVQPGRPMKLSCVASGFTFSDYWMNWVRQSPEKGLEWVAQIRNKPYNYETFYSDSVKGRFTISRDDSKSSVYLQMNNLRAEDMGIYYCTGYFDYWGQGTTLTVSS VL: DIVLTQSPASLAVSLGQRATISCRASQSVSTSSYSYMHWYQQKPGQPPKLLIKYASNLESGVPARFSGSGSGTDFTLNIHPVEEEDTATYYCQHSWGIPPTFGGGTKLEIKR	–	–	–	0.023	0.0413	0.179
murine OX40 hybridoma antibody 1G2 (antibody, V domains shown, Purified murine monoclonal hybridoma antibody) VH: EVQLQQSGPDLVKPGASVKMSCKASGYRFTSYVMHWVKQRPGQGLEWIGYINPYNDNTRYNEKFKGKATLTSDKSSSTAYMELSSLTSEDSAVYYCAAYYGDYVYLDYWGQGTTLTVSS VL: DIQMTQTTSSLSASLGDRVTISCRASQDINNYLNWYQQKPDGTVKLLIYYTSRLHSGVPSRFSGSGSGTDYSLIISNLEQEDIATYFCQQGNTLPWTFGGGTKLEIKR	–	–	–	0.0157	0.0805	0.117
murine OX40 hybridoma antibody 3G4 (antibody, V domains shown, Purified murine monoclonal hybridoma antibody) VH: EVQLQQSGPELVKPGTSVKMSCKASGYRFTSYVLHWVRRKPGQGLEWIGYVNPFNDNTRYNEKFKAKATLTSDKSSSTAYMDLVSLTSEDSAVYYCSRGLYDYSYVMDYWGQGTSVTVSS VL: DIQMTQTTSSLSASLGDGVTITCQASQDIRNYLNWYQQKPDGTIKLLIYHTSKLHSGVPSRFSGGGSGTDFSLTISNLDQEDIATYFCQQSQTLPYTFGGGTKLEIKR	–	–	–	0.0163	0.0537	0.0361
humanized anti-OX40 antibody hu177G5-DE (antibody, V domains shown, Constructed as human IgG1 with constant region Ser239, Ala330 and Ile332 mutated to Asp, Leu and Glu; also called humanized antibody 177G5; combination D') VH: QVQLVESGGGLVKPGGSLRLSCAASGFTFSDFYMYWIRQAPGKGLEWVATISDGGSYTYYPDIVKGRFTISRDNAKNSLNLQMNSLRAEDTAVYYCTTKNGNHIGFAYWGQGTTVTVSS VL: DIQMTQSPSSLSASVGDRVTITCRASENIYSNLAWYQQKPGKAPKLLVYAATNLADGVPSRFSGSGSGTDYTLTISSLQPEDFATYYCQHFWGIPWTFGGGTKVEIK	0.00236	0.096	0.309	–	–	–
humanized anti-OX40 antibody hu3G4-DE (antibody, V domains shown, Constructed as human IgG1 with constant region Ser239, Ala330 and Ile332 mutated to Asp, Leu and Glu; also called humanized antibody 3G4; combination B') VH: QVQLVQSGAEVKKPGASVKVSCKASGYRFTSYVLHWVRQAPGQRLEWIGYVNPFNDNTRYNEKFKARATLTSDKSASTAYMELSSLRSEDTAVYYCSRGLYDYSYVMDYWGQGTLVTVSS VL: DIQMTQSPSSLSASVGDRVTITCQASQDIRNYLNWYQQKPGKAPKLLIYHTSKLHSGVPSRFSGSGSGTDFTFTISSLQPEDIATYYCQQSNTLPYTFGQGTKLEIK	0.00152	0.0713	0.0181	–	–	–
murine OX40 hybridoma antibody 9G7 (antibody, V domains shown, Purified murine monoclonal hybridoma antibody) VH: EVKLVESGGGLVQPGGSLKLSCAASGFTFSDYYMYWVRQTPEKRLEWVAYISNGDISTYYPDTVKGRFTISRDNAKNTLYLQMSRLKSEDTAMYYCARDDGYSAWFAYWGQGTLVTVSA VL: not shown	–	–	–	0.0198	0.0369	~0.0361
murine OX40 hybridoma antibody 177G5 (antibody, V domains shown, Purified murine monoclonal hybridoma antibody) VH: EVQLVESGGGLVKPGGSLKLSCAASGFTFSDFYMYWVRQTPEKRLEWVATISDGGSYTYYPDIVKGRFTISRDNAKNNLNLQMSSLKSDDTAMYYCTTKNGNHIGFAYWGQGTLVTVSA VL: DIQMTQSPASLSVSVGETVTITCRASENIYSNLAWYQQKQGKSPQLLVYAATNLADGVPSRFSGSGSGTQYSLKINSLQSEDFGSYYCQHFWGIPWTFGGGTKLEIKR	–	–	–	0.0215	0.0499	0.253
